Results from patent publication US20050260216A1 (published 2005).

T1: human type-2 IL-4 receptor (on A549 cells) (human, UniProt P24394 26-825; P78552 22-427)
T1 sequence (looked up) 1: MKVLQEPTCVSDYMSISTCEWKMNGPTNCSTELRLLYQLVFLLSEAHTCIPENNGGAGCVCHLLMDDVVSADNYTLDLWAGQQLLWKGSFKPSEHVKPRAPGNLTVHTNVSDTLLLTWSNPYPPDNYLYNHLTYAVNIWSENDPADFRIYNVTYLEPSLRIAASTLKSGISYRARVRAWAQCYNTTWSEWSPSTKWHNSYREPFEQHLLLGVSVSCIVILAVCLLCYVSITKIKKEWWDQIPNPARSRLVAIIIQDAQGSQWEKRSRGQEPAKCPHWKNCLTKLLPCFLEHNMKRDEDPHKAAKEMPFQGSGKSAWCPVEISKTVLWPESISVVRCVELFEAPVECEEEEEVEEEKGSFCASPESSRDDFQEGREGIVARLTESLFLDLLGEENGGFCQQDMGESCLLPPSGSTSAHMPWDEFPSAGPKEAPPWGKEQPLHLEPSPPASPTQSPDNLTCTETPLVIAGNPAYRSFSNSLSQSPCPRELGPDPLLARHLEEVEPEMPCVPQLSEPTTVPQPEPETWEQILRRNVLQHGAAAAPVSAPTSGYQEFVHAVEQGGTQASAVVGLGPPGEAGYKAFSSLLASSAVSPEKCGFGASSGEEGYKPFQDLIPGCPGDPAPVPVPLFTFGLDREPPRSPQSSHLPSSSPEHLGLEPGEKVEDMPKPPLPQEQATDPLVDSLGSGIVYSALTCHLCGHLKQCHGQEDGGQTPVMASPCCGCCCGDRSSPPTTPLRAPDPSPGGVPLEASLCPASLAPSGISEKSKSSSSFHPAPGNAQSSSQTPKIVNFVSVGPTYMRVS
T1 sequence (looked up) 2: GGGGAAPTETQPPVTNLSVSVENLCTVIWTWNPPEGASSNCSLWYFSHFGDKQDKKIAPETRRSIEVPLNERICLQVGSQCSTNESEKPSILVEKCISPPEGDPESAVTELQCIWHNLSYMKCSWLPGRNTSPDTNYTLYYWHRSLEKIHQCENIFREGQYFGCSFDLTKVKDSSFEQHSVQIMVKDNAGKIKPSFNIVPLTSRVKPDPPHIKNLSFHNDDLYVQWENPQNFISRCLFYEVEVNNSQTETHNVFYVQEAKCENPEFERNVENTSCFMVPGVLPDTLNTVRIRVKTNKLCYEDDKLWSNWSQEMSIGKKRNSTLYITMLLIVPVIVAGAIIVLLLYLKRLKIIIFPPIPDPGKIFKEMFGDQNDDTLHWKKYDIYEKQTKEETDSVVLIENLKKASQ


Columns and labels:
[1] = biological target: human type-2 IL-4 receptor (on A549 cells) (human) (UniProt P24394); assay: cell-based or functional assay
[2] = biological target: T1, human type-2 IL-4 receptor (on A549 …); assay: cell-based or functional assay

phosphorylation of STAT6 in A549 cells (Western blot); lowest active concentration tested [1] | bioactivity relative to mIL-13 (STAT6 phosphorylation in A549 cells) [2] | Molecule
10 ng/mL | – | recombinant mouse IL-13 (catalogue number 413-ML-025, R&D Systems) (from UniProt P20109 26-131) (ligand)
– | ~5 fold less than mIL-13 | chimaeric IL-13 (free cIL-13 generated from GST-cIL-13 by thrombin cleavage) (ligand) GPVPRSVSLPLTLRELIEELVNITQDQTPLCNGSMVWSVDLAAGGYCAALESLTNISNCNAIEKTQRMLGGLCNRKAPTTVSSLPDTKIEVAQFVKDLLSYTKQLFRHGPF
